Reference: the supplement of paper PMC9112550, “Optimization of the antimicrobial peptide Bac7 by deep mutational scanning” (BMC Biology, 2022)

The sequences below were run on Escherichia coli TOP10 (assay: shrunken log2 fold change of peptide-encoding DNA abundance (4.5 h post-induction vs induction); higher = less antimicrobial activity (less host growth inhibition)). Conditions: time post-induction: 4.5 h; library: site-saturation at positions 5, 18, 19, 20.
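Note: peptides expressed intracellularly from a pBAD plasmid library in pooled LB shake-flask culture, induced with 0.3% L-arabinose, DNA abundance read by NGS, three biological replicates, DESeq2 with apeglm shrinkage.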

| Sequence | shrunken log2 fold change |
| --- | --- |
| RRIRQRPPRLPRPRPRPVDGPRP | -0.13 |
| RRIRSRPPRLPRPRPRPAMGPRP | 0.313 |
| RRIRSRPPRLPRPRPRPQMKPRP | -0.32 |
| RRIRKRPPRLPRPRPRPYQHPRP | -0.0857 |
| RRIRHRPPRLPRPRPRPVMHPRP | 0.000945 |
| RRIRERPPRLPRPRPRPYCEPRP | -0.0402 |
| RRIRWRPPRLPRPRPRPKYTPRP | -0.315 |
| RRIRMRPPRLPRPRPRPYPVPRP | -0.237 |
| RRIRQRPPRLPRPRPRPQGYPRP | -0.19 |
| RRIRCRPPRLPRPRPRPVGAPRP | 0.622 |
| RRIRTRPPRLPRPRPRPCDMPRP | -0.729 |
| RRIRARPPRLPRPRPRPAQAPRP | 0.939 |
| RRIRTRPPRLPRPRPRPYCTPRP | 1.36 |
| RRIRFRPPRLPRPRPRPIEIPRP | -0.143 |
| RRIRQRPPRLPRPRPRPMMSPRP | -0.0325 |
| RRIRDRPPRLPRPRPRPQHKPRP | -0.217 |
| RRIRGRPPRLPRPRPRPRGNPRP | 0.995 |
| RRIRLRPPRLPRPRPRPGFWPRP | 0.406 |
| RRIRTRPPRLPRPRPRPPWCPRP | 0.28 |
| RRIRQRPPRLPRPRPRPLMDPRP | 0.0125 |
| RRIRYRPPRLPRPRPRPADWPRP | 0.0899 |
| RRIRCRPPRLPRPRPRPPLCPRP | 0.674 |
| RRIRSRPPRLPRPRPRPLVSPRP | 0.208 |
| RRIRYRPPRLPRPRPRPWRNPRP | -0.00674 |
| RRIRDRPPRLPRPRPRPPNEPRP | -0.0231 |

| Sequence | shrunken log2 fold change |
| --- | --- |
| RRIRQRPPRLPRPRPRPWYRPRP | -0.49 |
| RRIRIRPPRLPRPRPRPLAYPRP | -0.132 |
| RRIRKRPPRLPRPRPRPLNCPRP | -0.0221 |
| RRIRSRPPRLPRPRPRPVAVPRP | 0.0198 |
| RRIRCRPPRLPRPRPRPDLYPRP | -0.0793 |
| RRIRWRPPRLPRPRPRPQQYPRP | -0.284 |
| RRIRFRPPRLPRPRPRPRTCPRP | -0.0542 |
| RRIRMRPPRLPRPRPRPFEPPRP | 0.174 |
| RRIRLRPPRLPRPRPRPNRWPRP | 0.254 |
| RRIRIRPPRLPRPRPRPVNQPRP | 0.0745 |
| RRIRTRPPRLPRPRPRPNFDPRP | 0.232 |
| RRIRRRPPRLPRPRPRPDNHPRP | -0.215 |
| RRIRNRPPRLPRPRPRPKEKPRP | -0.016 |
| RRIRFRPPRLPRPRPRPYDKPRP | -0.374 |
| RRIRMRPPRLPRPRPRPFSRPRP | 0.0409 |
| RRIRVRPPRLPRPRPRPRCAPRP | 0.517 |
| RRIRFRPPRLPRPRPRPHENPRP | 0.0161 |
| RRIRIRPPRLPRPRPRPMWWPRP | 0.141 |
| RRIRQRPPRLPRPRPRPDKLPRP | -0.522 |
| RRIRQRPPRLPRPRPRPYIGPRP | -0.681 |
| RRIRLRPPRLPRPRPRPFMCPRP | -0.0925 |
| RRIRPRPPRLPRPRPRPTFLPRP | -0.0646 |
| RRIRARPPRLPRPRPRPKEFPRP | 0.355 |
| RRIRVRPPRLPRPRPRPMEPPRP | 0.0643 |
| RRIRYRPPRLPRPRPRPLTYPRP | -0.144 |

| Sequence | shrunken log2 fold change |
| --- | --- |
| RRIRRRPPRLPRPRPRPPYKPRP | 0.114 |
| RRIRSRPPRLPRPRPRPNFQPRP | -0.089 |
| RRIRGRPPRLPRPRPRPQEGPRP | 0.0358 |
| RRIRTRPPRLPRPRPRPRQCPRP | 0.153 |
| RRIRSRPPRLPRPRPRPTTEPRP | 0.014 |
| RRIRDRPPRLPRPRPRPVWAPRP | 0.548 |
| RRIRGRPPRLPRPRPRPVKFPRP | 0.326 |
| RRIRMRPPRLPRPRPRPYWRPRP | -0.159 |
| RRIRPRPPRLPRPRPRPRKMPRP | 0.0337 |
| RRIRMRPPRLPRPRPRPMNQPRP | 0.646 |
| RRIRLRPPRLPRPRPRPWGTPRP | -0.169 |
| RRIRERPPRLPRPRPRPLNNPRP | -0.705 |
| RRIRVRPPRLPRPRPRPPCRPRP | 2.01 |
| RRIRLRPPRLPRPRPRPWIFPRP | -0.0453 |
| RRIRRRPPRLPRPRPRPGYFPRP | -0.209 |
| RRIRERPPRLPRPRPRPTLLPRP | -0.137 |
| RRIRKRPPRLPRPRPRPYKFPRP | -0.0374 |
| RRIRPRPPRLPRPRPRPHIKPRP | -0.454 |
| RRIRSRPPRLPRPRPRPTFKPRP | -0.0617 |
| RRIRQRPPRLPRPRPRPTYFPRP | -0.0458 |
| RRIRQRPPRLPRPRPRPRWRPRP | 0.557 |
| RRIRVRPPRLPRPRPRPKMLPRP | -0.13 |
| RRIRLRPPRLPRPRPRPSMIPRP | -1.02 |
| RRIRHRPPRLPRPRPRPTYRPRP | -0.0234 |
| RRIRERPPRLPRPRPRPKVRPRP | -0.0607 |

| Sequence | shrunken log2 fold change |
| --- | --- |
| RRIRTRPPRLPRPRPRPTFKPRP | -0.227 |
| RRIRARPPRLPRPRPRPIHQPRP | -0.0255 |
| RRIRFRPPRLPRPRPRPMHTPRP | 0.5 |
| RRIRGRPPRLPRPRPRPCHDPRP | 0.458 |
| RRIRFRPPRLPRPRPRPEPQPRP | 0.417 |
| RRIRDRPPRLPRPRPRPRRWPRP | 0.453 |
| RRIRPRPPRLPRPRPRPNFSPRP | 1.08 |
| RRIRMRPPRLPRPRPRPNVFPRP | 0.136 |
| RRIRVRPPRLPRPRPRPTWRPRP | 0.686 |
| RRIRKRPPRLPRPRPRPEFVPRP | 0.587 |
| RRIRCRPPRLPRPRPRPYTWPRP | -1.09 |
| RRIRFRPPRLPRPRPRPILVPRP | -0.152 |
| RRIRHRPPRLPRPRPRPFWYPRP | -0.167 |
| RRIRSRPPRLPRPRPRPWATPRP | -0.102 |
| RRIRGRPPRLPRPRPRPIKEPRP | -0.104 |
| RRIRMRPPRLPRPRPRPRHSPRP | 0.0596 |
| RRIRTRPPRLPRPRPRPAFDPRP | 0.161 |
| RRIRYRPPRLPRPRPRPYCHPRP | -0.435 |
| RRIRVRPPRLPRPRPRPRDVPRP | -0.113 |
| RRIRWRPPRLPRPRPRPLPKPRP | 0.12 |
| RRIRWRPPRLPRPRPRPKVCPRP | -0.0693 |
| RRIRLRPPRLPRPRPRPTGRPRP | 0.105 |
| RRIRYRPPRLPRPRPRPGHFPRP | -0.0316 |
| RRIRWRPPRLPRPRPRPRNWPRP | 0.172 |
| RRIRPRPPRLPRPRPRPVLKPRP | -0.267 |

| Sequence | shrunken log2 fold change |
| --- | --- |
| RRIRNRPPRLPRPRPRPDGVPRP | 0.221 |
| RRIRSRPPRLPRPRPRPDCLPRP | -0.11 |
| RRIRHRPPRLPRPRPRPQFKPRP | -0.024 |
| RRIRRRPPRLPRPRPRPFLKPRP | -0.0464 |
| RRIRIRPPRLPRPRPRPICLPRP | -0.197 |
| RRIRPRPPRLPRPRPRPTTCPRP | 0.262 |
| RRIRARPPRLPRPRPRPRNLPRP | -0.0356 |
| RRIRCRPPRLPRPRPRPILYPRP | -0.716 |
| RRIRYRPPRLPRPRPRPHKLPRP | -0.188 |
| RRIRTRPPRLPRPRPRPVQPPRP | 0.238 |
| RRIRGRPPRLPRPRPRPRCGPRP | 0.751 |
| RRIRLRPPRLPRPRPRPGILPRP | -0.105 |
| RRIRERPPRLPRPRPRPLMYPRP | -0.0754 |
| RRIRSRPPRLPRPRPRPPEGPRP | 0.704 |
| RRIRFRPPRLPRPRPRPFSNPRP | 0.0406 |
| RRIRMRPPRLPRPRPRPERTPRP | 0.00114 |
| RRIRNRPPRLPRPRPRPGACPRP | 0.0367 |
| RRIRSRPPRLPRPRPRPTSVPRP | 0.00616 |
| RRIRIRPPRLPRPRPRPHYAPRP | -0.121 |
| RRIRPRPPRLPRPRPRPANTPRP | -0.224 |
| RRIRKRPPRLPRPRPRPPIVPRP | -0.121 |
| RRIRFRPPRLPRPRPRPCRIPRP | -2.21 |
| RRIRQRPPRLPRPRPRPAYTPRP | 0.0569 |
| RRIRMRPPRLPRPRPRPVFHPRP | -0.341 |
| RRIRKRPPRLPRPRPRPDVEPRP | 0.962 |

| Sequence | shrunken log2 fold change |
| --- | --- |
| RRIRPRPPRLPRPRPRPGRDPRP | 0.286 |
| RRIRARPPRLPRPRPRPCDFPRP | -0.128 |
| RRIRARPPRLPRPRPRPVIRPRP | -0.055 |
| RRIRLRPPRLPRPRPRPIWTPRP | 0.0256 |
| RRIRSRPPRLPRPRPRPQCRPRP | -0.0553 |
| RRIRARPPRLPRPRPRPHHMPRP | -0.715 |
| RRIRRRPPRLPRPRPRPSMIPRP | -0.114 |
| RRIRCRPPRLPRPRPRPFRWPRP | 0.406 |
| RRIRVRPPRLPRPRPRPWAAPRP | 0.049 |
| RRIRHRPPRLPRPRPRPFNMPRP | -0.0933 |
| RRIRKRPPRLPRPRPRPGHMPRP | 0.177 |
| RRIRRRPPRLPRPRPRPFDPPRP | 0.504 |
| RRIRVRPPRLPRPRPRPYQHPRP | -0.301 |
| RRIRARPPRLPRPRPRPHEHPRP | 0.0352 |
| RRIRQRPPRLPRPRPRPLCDPRP | -0.131 |
| RRIRTRPPRLPRPRPRPHEAPRP | -0.0062 |
| RRIRLRPPRLPRPRPRPRQHPRP | -0.0111 |
| RRIRFRPPRLPRPRPRPTKRPRP | 0.269 |
| RRIRKRPPRLPRPRPRPMHRPRP | 0.0595 |
| RRIRQRPPRLPRPRPRPTVPPRP | -0.0488 |
| RRIRKRPPRLPRPRPRPPLLPRP | 0.524 |
| RRIRARPPRLPRPRPRPMNRPRP | -0.107 |
| RRIRSRPPRLPRPRPRPDVVPRP | -0.448 |
| RRIRTRPPRLPRPRPRPWKEPRP | -0.0407 |
| RRIRARPPRLPRPRPRPMTHPRP | 0.151 |
